Experimental data: patent US20240252641A1 (TCR2 THERAPEUTICS, published 2024)

T1: human CD27 fused to human Fc domain (human, UniProt P26842 21-192, limits assumed)
T1 construct: bought reagent; also called CD27-Fc; CD27Fc
T1 sequence (looked up): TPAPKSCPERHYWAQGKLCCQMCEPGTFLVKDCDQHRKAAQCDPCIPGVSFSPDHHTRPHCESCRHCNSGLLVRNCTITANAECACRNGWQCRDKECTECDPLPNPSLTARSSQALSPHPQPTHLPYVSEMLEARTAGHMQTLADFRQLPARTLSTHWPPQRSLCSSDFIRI

T2: CD70 on cells (CHO-CD70, JVM-3, U266, Raji, THP-1, T cells) (human, UniProt P32970 1-193)
T2 construct: whole, on cells; also called cell-surface CD70
T2 sequence (looked up): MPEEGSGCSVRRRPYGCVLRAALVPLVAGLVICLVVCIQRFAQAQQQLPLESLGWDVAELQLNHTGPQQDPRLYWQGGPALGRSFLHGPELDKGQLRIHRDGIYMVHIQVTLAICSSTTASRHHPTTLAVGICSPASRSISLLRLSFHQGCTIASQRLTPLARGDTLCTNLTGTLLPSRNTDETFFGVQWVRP

B1: human CD70, recombinant, N-terminally biotinylated (residues 39-193) (ligand, UniProt P32970 39-193, looked up)
chain: QRFAQAQQQLPLESLGWDVAELQLNHTGPQQDPRLYWQGGPALGRSFLHGPELDKGQLRIHRDGIYMVHIQVTLAICSSTTASRHHPTTLAVGICSPASRSISLLRLSFHQGCTIASQRLTPLARGDTLCTNLTGTLLPSRNTDETFFGVQWVRP
modifications: N-terminal biotin
notes: range 39-193; the same entry is used there; also called biotinylated human CD70; CD70 biotin
B2: R3P5A1 VHH (VHH)
VHH: QVQLQESGGGLVQPGGSLRLSCTASGSIFSATRMEWYRQAPGKQRELVAIVTSGGRTNYADSVNGRFTISRDNAKNTLYLQMNNLKPEDTAVYYCKFERYDYVNYWGRGTQVTVSS
notes: tested as VHH-His
B3: R3aP9D10 VHH (VHH)
VHH: QVQLQESGGGLVQAGGSLRLSCAAPGFTFDAYAIGWFRQAPGKEREGVICLSPSDGSTYYADSVKGRFTISSDNAKNTVYLQMNSLKPEDTAVYYCATPSWCSLKADFGSWGQGTQVTVSS
notes: tested as VHH-His
B4: R3P2G8 VHH (VHH)
VHH: QVQLQESGGGLVQTGGSLRLSCTASGSIFDIARGNWYRQAPGKQRELVAIITSGGATNYADSVAGRFTISRDDAKNTVYLQMNGLKPEDTAVYFCNMESLSYRHYWGQGTQVTVSS
notes: tested as VHH-His

Legend:
[1] = molecular target: T1, human CD27 fused to human Fc domain; assay: BLI, biotinylated CD70 on streptavidin sensors, 400 nM analyte
Description: (§1) Bio-layer interferometry was used to measure the binding affinity of CD70 to CD70-targeted antibodies 41D12, R3P3H12, R3P5A1, R3aP3E8, and R3aP9D10, and human CD27 fused to human Fc domain (CD27-Fc; Acro Biosystems cat. CD7-h5254). […] Following CD70 immobilization, biosensors were immersed in Octet Buffer to remove unbound, biotinylated CD70 and to establish a flat baseline sensor signal. CD70-loaded Biosensors were then transferred to Octet buffer containing 400 nM of CD27-Fc or αCD70 antibody and association was monitored for 5 minutes at 30° C. whilst agitating at 1,000 RPM. An scFv fragment derived from humanized llama αCD70 antibody 41D12 and fused to human Fc (41D12-Fc) served as a positive control for CD70 binding and an αLysozyme single-domain camelid antibody (clone D2-L19) was used as a negative control. CD27-Fc or αCD70 antibody dissociation was initiated by transferring sensors to Octet buffer and monitored for 5 minutes. Data were analyzed using ForteBio Data Analysis Suite 9.0. The observed association (kₒₙ) and dissociation (koff) rates for the binding of single-domain antibodies to CD70 were determined using a 1:1 curve fitting model to obtain, in all cases, R²≥0.95. Values of the equilibrium dissociation constant for binding to CD70, KD, were determined from the ratio of koff and kₒₙ.

[2] = molecular target: B1; assay: as above
Description: as §1

[3] = molecular target: T2, CD70 on cells (CHO-CD70, JVM-3, U266, …); assay: binding to CD70-expressing CHO cells with and without CD27-Fc
In short: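 Anti-CD70 antibodies and CD27-Fc were applied to CHO cells with CD70 attached to the cell surface, in four set-ups. Each was applied alone; antibody was premixed with CD27-Fc; or cells were first coated with CD27-Fc or with antibody, washed, and then given the mixture. The binding signal was then measured in each set-up.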

[4] = molecular target: T2, CD70 on cells (CHO-CD70, JVM-3, U266, …); assay: cell ELISA, about 500 nM VHH-His, anti-His-HRP
Description: A cell binding ELISA was carried out to determine whether the anti-CD70 VHHs could recognize the antigen on cells. ˜500 nM each VHH-his was diluted in blocking buffer (PBS+0.01% Tween20+2% non-fat dry milk) and added to wells containing 100,000-200,000 pre-blocked CHO-CD70 cells (high CD70 expression), JVM3 cells (medium-low CD70 expression), wild type CHO cells (negative control), HL60 cells (negative control). The plate was incubated for 1 hour at room temperature with agitation. After incubation cells were washed 3 times by spinning down and dumping of the supernatant followed by addition of PBST. Subsequently, secondary antibody was applied (anti-His-HRP) and the mixture incubated for 30 minutes. After 3 more washes TMB substrate was applied to the plates and the reaction was allowed to proceed for 1-5 minutes before 1M HCl was applied as a stop solution. Immediately following application of the stop solution the absorbance at 450 nm (OD₄₅₀) of each well was measured on a spectrophotometer.

Binder	binding result [1]	binding result [2]	binding result [3]	binding result [4]
B1	binds	–	–	–
B2	–	binds	binds	–
B3	–	binds	binds	–
B4	–	–	–	binds
